Experimental data taken from patent US20210355194A1.

How the values were obtained:
[1] = molecular target: ACE2 on VERO E6 cells (African green monkey); assay: flow cytometry, VERO E6 cells, positive control
[2] = molecular target: SARS-CoV-2 antigen of the epitope binning (SARS-CoV-2) (UniProt P0DTC2); assay: epitope binning; competitor 2-2
[3] = molecular target: SARS-CoV-2 antigen of the epitope binning (SARS-CoV-2) (UniProt P0DTC2); assay: epitope binning; competitor 2-5
[4] = molecular target: SARS-CoV-2 antigen of the epitope binning (SARS-CoV-2) (UniProt P0DTC2); assay: epitope binning; competitor 2-6
[5] = molecular target: SARS-CoV-2 antigen of the epitope binning (SARS-CoV-2) (UniProt P0DTC2); assay: epitope binning; competitor 2-8
[6] = molecular target: SARS-CoV-2 antigen of the epitope binning (SARS-CoV-2) (UniProt P0DTC2); assay: epitope binning; competitor 1-16
[7] = molecular target: SARS-CoV-2 antigen of the epitope binning (SARS-CoV-2) (UniProt P0DTC2); assay: epitope binning; competitor 1-32
[8] = molecular target: SARS-CoV-2 antigen of the epitope binning (SARS-CoV-2) (UniProt P0DTC2); assay: epitope binning; competitor 1-35
[9] = molecular target: SARS-CoV-2 antigen of the epitope binning (SARS-CoV-2) (UniProt P0DTC2); assay: epitope binning; competitor 2-11
[10] = molecular target: SARS-CoV-2 antigen of the epitope binning (SARS-CoV-2) (UniProt P0DTC2); assay: epitope binning; competitor CR3022
[11] = molecular target: SARS-CoV-2 antigen of the epitope binning (SARS-CoV-2) (UniProt P0DTC2); assay: epitope binning; competitor Acro mAb

S1 RBD Fc fusion (from UniProt P0DTC2 319-541)
MFI [1]: 26100 | MFI/Baseline [1]: 75.9

CR3022 (antibody)
epitope binning score [2]: 0 | epitope binning score [3]: 0 | epitope binning score [4]: 2 | epitope binning score [5]: 0 | epitope binning score [6]: 2 | epitope binning score [7]: 1 | epitope binning score [8]: 2 | epitope binning score [9]: 1 | epitope binning score [10]: 0 | epitope binning score [11]: 2
